Test results taken from PMC11490574, “IGF2BP1 phosphorylation in the disordered linkers regulates ribonucleoprotein condensate formation and RNA metabolism”.

B1: XBP1 201 nt (ssRNA)
RNA: UCUCAAAUCUGCUUUCAUCCAGCCACUGCCCAAAGCCAUCUUCCUGCCUACUGGAUGCUUACAGUGACUGUGGAUACGGGGGUUCCCUUUCCCCAUUCAGUGACAUGUCCUCUCUGCUUGGUGUAAACCAUUCUUGGGAGGACACUUUUGCCAAUGAACUCUUUCCCCAGCUGAUUAGUGUCUAAGGAAUGAUCCAAUACU
B2: EIF2A 200 nt (ssRNA)
RNA: AGAAAAUUCAGAAAGAAACAGCCCUUCUCCAGGAGCUGGAAGAUUUGGAAUUGGGUAUUUAAAGAUUCACGGAAAGCAAGUUGAUGACCAGAAAUCAGUGCAAACACAUCUUCUGUUAAACCCAUUGGUAUACACAGAAUAUUCCUGUGCCCACACUUAAUGUCAAUCUAUAAUUUUAACCAUUUAUCCAAGAUUCUACU
B3: MYC 191 nt (ssRNA)
RNA: UGCGUGACCAGAUCCCGGAGUUGGAAAACAAUGAAAAGGCCCCCAAGGUAGUUAUCCUUAAAAAAGCCACAGCAUACAUCCUGUCCGUCCAAGCAGAGGAGCAAAAGCUCAUUUCUGAAGAGGACUUGUUGCGGAAACGACGAGAACAGUUGAAACACAAACUUGAACAGCUACGGAACUCUUGUGCGUAA

Tests used:
IGF2BP1 S181E [1] = molecular target: T1, IGF2BP1 S181E (UniProt Q9NZI8 1-577, S181E); test: EMSA; EMSA: 25 mM HEPES pH 7.3, 150 mM NaCl, 5% glycerol, 2 mM EDTA, 10 ug/mL heparin, 0.5 mM TCEP, on ice, gel 4 C; FA: 25 mM HEPES 7.3, 150 mM NaCl, 0.025% Tween 20, 10 ug/mL heparin, 2 mM EDTA, 0.5 mM TCEP, 10 nM RNA, 20 C; conditions: protein: recombinant; tags: GST removed by 3C
T1 sequence (Q9NZI8 whole entry S181E): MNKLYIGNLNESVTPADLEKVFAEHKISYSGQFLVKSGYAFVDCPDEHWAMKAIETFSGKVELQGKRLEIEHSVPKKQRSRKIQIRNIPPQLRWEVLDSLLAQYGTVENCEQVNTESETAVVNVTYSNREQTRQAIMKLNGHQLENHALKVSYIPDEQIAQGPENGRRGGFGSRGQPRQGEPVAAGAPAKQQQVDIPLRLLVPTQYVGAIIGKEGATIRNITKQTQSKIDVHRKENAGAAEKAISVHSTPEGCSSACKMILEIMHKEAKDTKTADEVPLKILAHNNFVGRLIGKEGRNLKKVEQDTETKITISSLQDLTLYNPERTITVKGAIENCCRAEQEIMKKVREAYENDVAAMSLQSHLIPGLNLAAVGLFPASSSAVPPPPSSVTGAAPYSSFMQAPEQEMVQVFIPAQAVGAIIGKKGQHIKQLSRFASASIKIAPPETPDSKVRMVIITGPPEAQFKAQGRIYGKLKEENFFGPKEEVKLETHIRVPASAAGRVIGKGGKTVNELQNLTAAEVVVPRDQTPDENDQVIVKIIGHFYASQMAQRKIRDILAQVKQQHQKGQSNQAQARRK

IGF2BP1 RQ [2] = molecular target: T2, IGF2BP1 RQ (UniProt Q9NZI8 1-577, R167Q;R168Q;R174Q;R178Q); test: as above; conditions: protein: recombinant; tags: GST removed by 3C
T2 sequence (Q9NZI8 whole entry R167Q/R168Q/R174Q/R178Q): as the sequence (Q9NZI8 whole entry S181E) above, with R167Q, R168Q, R174Q, R178Q, E181S counted along it

IGF2BP1 Y396E [3] = molecular target: T3, IGF2BP1 Y396E (UniProt Q9NZI8 1-577, Y396E); test: as above; conditions: protein: recombinant; tags: GST removed by 3C
T3 sequence (Q9NZI8 whole entry Y396E): as the sequence (Q9NZI8 whole entry S181E) above, with E181S, Y396E counted along it

IGF2BP1 wild-type [4] = molecular target: T4, IGF2BP1 wild-type (UniProt Q9NZI8 1-577); test: as above; conditions: protein: recombinant; tags: GST removed by 3C
T4 sequence (Q9NZI8 whole entry): as the sequence (Q9NZI8 whole entry S181E) above, with E181S counted along it

[5] = molecular target: T5, IGF2BP1 KH3-4dR (KH3GEEG-KH4GEEG) (UniProt Q9NZI8 1-577, K423E;K424E;K505E;G506E); test: as above; conditions: protein: recombinant; tags: GST removed by 3C
T5 sequence (Q9NZI8 whole entry K423E/K424E/K505E/G506E): as the sequence (Q9NZI8 whole entry S181E) above, with E181S, K423E, K424E, K505E, G506E counted along it

IGF2BP1 S181E [6] = molecular target: T1, IGF2BP1 S181E; test: fluorescence anisotropy; EMSA: 25 mM HEPES pH 7.3, 150 mM NaCl, 5% glycerol, 2 mM EDTA, 10 ug/mL heparin, 0.5 mM TCEP, on ice, gel 4 C; FA: 25 mM HEPES 7.3, 150 mM NaCl, 0.025% Tween 20, 10 ug/mL heparin, 2 mM EDTA, 0.5 mM TCEP, 10 nM RNA, 20 C; conditions: protein: recombinant; tags: GST removed by 3C; label: 5'-fluorescein
IGF2BP1 RQ [7] = molecular target: T2, IGF2BP1 RQ; test: as above; conditions: protein: recombinant; tags: GST removed by 3C; label: 5'-fluorescein
IGF2BP1 KH1-4 = IGF2BP1 KH1-4 (UniProt Q9NZI8 195-553); test: as above; conditions: protein: recombinant; tags: His removed by 3C; label: 5'-fluorescein
IGF2BP1 KH1-4, sequence (Q9NZI8 195-553): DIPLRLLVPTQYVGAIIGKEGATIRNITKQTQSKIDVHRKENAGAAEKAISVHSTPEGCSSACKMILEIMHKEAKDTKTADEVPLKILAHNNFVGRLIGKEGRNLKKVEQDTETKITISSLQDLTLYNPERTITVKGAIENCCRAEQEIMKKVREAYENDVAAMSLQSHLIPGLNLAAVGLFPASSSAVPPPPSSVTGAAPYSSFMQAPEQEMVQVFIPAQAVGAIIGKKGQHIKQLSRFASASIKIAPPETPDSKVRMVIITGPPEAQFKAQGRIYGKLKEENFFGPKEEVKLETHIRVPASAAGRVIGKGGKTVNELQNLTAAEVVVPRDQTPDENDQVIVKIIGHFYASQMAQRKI

IGF2BP1 KH3-4 = IGF2BP1 KH3-4 (UniProt Q9NZI8 405-553); test: as above; conditions: protein: recombinant; tags: His removed by 3C; label: 5'-fluorescein
IGF2BP1 KH3-4, sequence (Q9NZI8 405-553): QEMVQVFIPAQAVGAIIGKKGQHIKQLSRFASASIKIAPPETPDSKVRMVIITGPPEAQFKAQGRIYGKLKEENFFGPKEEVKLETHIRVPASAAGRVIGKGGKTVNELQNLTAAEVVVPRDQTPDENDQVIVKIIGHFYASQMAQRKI

IGF2BP1 Y396E [8] = molecular target: T3, IGF2BP1 Y396E; test: as above; conditions: protein: recombinant; tags: GST removed by 3C; label: 5'-fluorescein
IGF2BP1 wild-type [9] = molecular target: T4, IGF2BP1 wild-type; test: as above; conditions: protein: recombinant; tags: GST removed by 3C; label: 5'-fluorescein
[10] = molecular target: T5, IGF2BP1 KH3-4dR (KH3GEEG-KH4GEEG); test: as above; conditions: protein: recombinant; tags: GST removed by 3C; label: 5'-fluorescein

Binder	apparent K (half saturation) (IGF2BP1 S181E [1])	binding result (IGF2BP1 RQ [2])	apparent K (half saturation) (IGF2BP1 Y396E [3])	apparent K (half saturation) (IGF2BP1 wild-type [4])	apparent K (half saturation) [5]	apparent K (half saturation) (IGF2BP1 S181E [6])	binding result (IGF2BP1 RQ [7])	apparent K (half saturation) (IGF2BP1 KH1-4)	apparent K (half saturation) (IGF2BP1 KH3-4)	apparent K (half saturation) (IGF2BP1 Y396E [8])	apparent K (half saturation) (IGF2BP1 wild-type [9])	apparent K (half saturation) [10]
B1	17.1 nM	binds	22.9 nM	41 nM	64.7 nM							
GUGACAUGUCCUCUCUGCUUGGUGUAAACCAUUCUU (ssRNA) [XBP1 36 nt]						310 nM	binds	204 nM	~1500 nM	423 nM	312 nM	186 nM
ACCGGACUGUUACCAACACCCACACCCC (ssRNA) [ACTB 28 nt]								75.2 nM	1570 nM		68.5 nM	
B2	35.4 nM		40.2 nM	48.2 nM								
B3	17.8 nM		16.7 nM	14.4 nM								
